Measured values published in publication PMC4692527.

Experiments:
[1] = target: FvTox1 in the pLexA vector (LexA fusion) (Fusarium virguliforme); assay: two-hybrid; LexA two-hybrid system, yeast EGY48 [pSH18-34]; FvTox1 in pLexA, peptides in pB42AD; reporters LacZ and LEU2; quantitative β-galactosidase activity (Miller units), three biological replications
[2] = target: GST-tagged FvTox1 (Fusarium virguliforme); assay: pull-down; purified His-tagged peptides/fusion proteins mixed with GST-tagged FvTox1, pulled down with glutathione resin; western blot with anti-His antibody; relative percent pulled down, two independent experiments

Row | Molecule | β-galactosidase activity [1] [Miller units] | percent peptide pulled down by FvTox1 (relative binding strength) [2] [percent]
1 | soybean GmGD1, a glycine cleavage protein (natural protein) | 5.79 | –
2 | soybean GmTRX3, a thioredoxin protein (natural protein) | 9.64 | –
3 | synthetic FvTox1-interacting fusion peptide 8 (PEP1-PEP2-PEP4; His-tagged, expressed in E. coli) (designed binder) GGGGSGGGGSGGGGSSYLPETIYEYRLGGGGSELGGGGSGGGGSGGGGSVENKTRYHDREVGGGGSLEGGGGSGGGGSGGGGSSNGRVADGGGGS | – | 26
4 | synthetic FvTox1-interacting fusion peptide 8 in pB42AD (no flanking cysteines) (designed binder) GGGGSGGGGSGGGGSSYLPETIYEYRLGGGGSELGGGGSGGGGSGGGGSVENKTRYHDREVGGGGSLEGGGGSGGGGSGGGGSSNGRVADGGGGS | 3.35 | –
5 | synthetic FvTox1-interacting fusion peptide 5 (PEP1-PEP2; His-tagged, expressed in E. coli) (designed binder) GGGGSGGGGSGGGGSSYLPETIYEYRLGGGGSELGGGGSGGGGSGGGGSVENKTRYHDREVGGGGS | – | 31.8
6 | synthetic FvTox1-interacting fusion peptide 5 in pB42AD (no flanking cysteines) (designed binder) GGGGSGGGGSGGGGSSYLPETIYEYRLGGGGSELGGGGSGGGGSGGGGSVENKTRYHDREVGGGGS | 3.11 | –
7 | GGGGSGGGGSGGGGSHEGAWHNYARSVGGGGS [synthetic FvTox1-interacting peptide 3 (His-tagged, expressed in E. coli)] | – | 2.7
8 | GGGGSGGGGSGGGGSHEGAWHNYARSVGGGGS [synthetic FvTox1-interacting peptide 3 in pB42AD (no flanking cysteines)] | 5.87 | –
9 | GGGGSGGGGSGGGGSVENKTRYHDREVGGGGS [synthetic FvTox1-interacting peptide 2 (His-tagged, expressed in E. coli)] | – | 5.5
10 | GGGGSGGGGSGGGGSVENKTRYHDREVGGGGS [synthetic FvTox1-interacting peptide 2 in pB42AD (no flanking cysteines)] | 5.88 | –
11 | GGGGSGGGGSGGGGSSNGRVADGGGGS [synthetic FvTox1-interacting peptide 4 (His-tagged, expressed in E. coli)] | – | 2.3
12 | synthetic FvTox1-interacting fusion peptide 7 (PEP1-PEP2-PEP3; His-tagged, expressed in E. coli) (designed binder) GSGGGGSGGGGSGGGGSSYLPETIYEYRLGGGGSELGGGGSGGGGSGGGGSVENKTRYHDREVGGGGSLEGGGGSGGGGSGGGGSHEGAWHNYARSVGGGGS | – | 38.5
13 | synthetic FvTox1-interacting fusion peptide 7 in pB42AD (no flanking cysteines) (designed binder) GSGGGGSGGGGSGGGGSSYLPETIYEYRLGGGGSELGGGGSGGGGSGGGGSVENKTRYHDREVGGGGSLEGGGGSGGGGSGGGGSHEGAWHNYARSVGGGGS | 6.12 | –
14 | synthetic FvTox1-interacting fusion peptide 9 (PEP1-PEP2-PEP3-PEP4; His-tagged, expressed in E. coli) (designed binder) GGGGSGGGGSGGGGSSYLPETIYEYRLGGGGSELGGGGSGGGGSGGGGSVENKTRYHDREVGGGGSLEGGGGSGGGGSGGGGSHEGAWHNYARSVGGGGSGTGGGGSGGGGSGGGGSSNGRVADGGGGS | – | 47
15 | synthetic FvTox1-interacting fusion peptide 9 in pB42AD (no flanking cysteines) (designed binder) GGGGSGGGGSGGGGSSYLPETIYEYRLGGGGSELGGGGSGGGGSGGGGSVENKTRYHDREVGGGGSLEGGGGSGGGGSGGGGSHEGAWHNYARSVGGGGSGTGGGGSGGGGSGGGGSSNGRVADGGGGS | 5.64 | –
16 | synthetic FvTox1-interacting fusion peptide 6 (PEP3-PEP4; His-tagged, expressed in E. coli) (designed binder) GGGSGGGGSGGGGSHEGAWHNYARSVGGGGSELGGGGSGGGGSGGGGSSNGRVADGGGGS | – | 8.8
17 | synthetic FvTox1-interacting fusion peptide 6 in pB42AD (no flanking cysteines) (designed binder) GGGSGGGGSGGGGSHEGAWHNYARSVGGGGSELGGGGSGGGGSGGGGSSNGRVADGGGGS | 5.32 | –
18 | GGGGSGGGGSGGGGSSYLPETIYEYRLGGGGS [synthetic FvTox1-interacting peptide 1 in pB42AD (no flanking cysteines)] | 6.59 | –
19 | GGGGSGGGGSGGGGSSYLPETIYEYRLGGGGS [synthetic FvTox1-interacting peptide 1 (His-tagged, expressed in E. coli)] | – | 3.9
20 | GGGGSGGGGSGGGGSSNGRVADGGGGS [synthetic FvTox1-interacting peptide 4 in pB42AD (no flanking cysteines)] | 6.45 | –
